# Measured values published in PMC3843637.
# Biological target: MAN1 fragment from amino acids 658 to 911 (MAN1C) (human) (UniProt Q9Y2U8)
# Test: SEC + NMR titration
# Sequence of MAN1 fragment from amino acids 658 to 911 (MAN1C) (human) (Q9Y2U8 658-911): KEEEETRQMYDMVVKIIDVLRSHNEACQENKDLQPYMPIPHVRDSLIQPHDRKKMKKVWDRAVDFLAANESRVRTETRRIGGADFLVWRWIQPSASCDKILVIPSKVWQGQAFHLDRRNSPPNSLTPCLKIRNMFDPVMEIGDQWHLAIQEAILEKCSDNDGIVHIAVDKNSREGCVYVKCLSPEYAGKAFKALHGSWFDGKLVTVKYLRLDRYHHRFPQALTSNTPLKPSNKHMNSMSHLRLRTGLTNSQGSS
substance,measurement,value
PPM1A (from UniProt P35813 1-382) (enzyme),Kd,10 to 500 µM
